Experimental data reported in patent publication US20190016816A1 (APTEVO RESEARCH AND DEVELOPMENT, published 2019).

Molecular target: T1, cynomolgus 5T4 on cells (cynomolgus macaque, UniProt Q4R8Y9 35-420)
T1 construct: whole, on cells; also called CHO-K1/cynomolgus 5T4 transfectants
T1 sequence (looked up): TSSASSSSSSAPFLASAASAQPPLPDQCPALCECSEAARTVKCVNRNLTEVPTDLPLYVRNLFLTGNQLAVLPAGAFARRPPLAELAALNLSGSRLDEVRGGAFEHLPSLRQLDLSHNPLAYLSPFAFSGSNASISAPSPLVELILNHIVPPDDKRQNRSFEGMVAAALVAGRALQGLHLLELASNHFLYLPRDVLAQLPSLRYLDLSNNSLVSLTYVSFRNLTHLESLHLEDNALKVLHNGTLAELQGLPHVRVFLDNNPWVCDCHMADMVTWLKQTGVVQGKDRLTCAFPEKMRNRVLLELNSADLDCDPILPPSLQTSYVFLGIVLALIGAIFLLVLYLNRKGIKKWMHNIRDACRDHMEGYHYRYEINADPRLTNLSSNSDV
Assay: flow cytometry, CHO-K1 cells expressing cynomolgus 5T4, labelled anti-human IgG secondary, MFI (median)
Description: Binding studies were performed by standard flow cytometry-based staining procedures two cell lines expressing 5T4:CHO-K1 cells (obtained from Alligator) transduced with human or cynomolgus macaque 5T4 and SKOV-3 human ovarian adenocarcinoma cells which express (human) 5T4. All labeling and washes were performed in U-bottom 96-well plates in saline buffer with 0.1% BSA and 2 mM EDTA. Cell were plated at approximately 100,000 cells per well and incubated with a range of 100 nM to 0.05 nM concentrations of test molecules in […], for 30 minutes on ice. Cells were washed three times then incubated for another 30 min on ice with fluorescently-labeled secondary polyclonal antibody, F(ab′)² goat anti-human IgG (Jackson ImmunoResearch Laboratories). The cells were then washed twice and the samples acquired in a BD LSRII or a Symphony A3 flow cytometer. The sample files were analyzed using FlowJo software; the mean fluorescence intensity (MFI-mean) or median fluorescence intensity (MFI-median) of the live population of cells in each well was calculated after gating on live cells (forward vs side scatter). Nonlinear regression analysis to determine EC₅₀ values was performed in GraphPad Prism 6® graphing and statistics software.

B1: ALG.APV-187 (bispecific antibody)
chain: EVQLLESGGGLVQPGGSLRLSCAASGFTFSHGSMYWVRQAPGKGLEWVSSISSGSGSTYYADSVKGRFTISHDNSKNTLYLQMNSLRAEDTAVYYCARSSYYGSYYSIDYWGQGTLVTVSSGGGGSGGGGSGGGGSGGGGSDIQMTQSPSSLSASVGDRVTITCRASQSISSYLNWYQQKPGKAPKLLIYAASSLQSGVPSRFSGSGSGTDFTLTISSLQPEDFATYYCQQYYDNLPTFGQGTKLEIKSSEPKSSDKTHTCPPCPAPEAAGAPSVFLFPPKPKDTLMISRTPEVTCVVVDVSHEDPEVKFNWYVDGVEVHNAKTKPREEQYNSTYRVVSVLTVLHQDWLNGKEYKCAVSNKALPAPIEKTISKAKGQPREPQVYTLPPSRDELTKNQVSLTCLVKGFYPSDIAVEWESNGQPENNYKTTPPVLDSDGSFFLYSKLTVDKSRWQQGNVFSCSVMHEALHNHYTQKSLSLSPGSGGGGSGGGGSGGGGSPSEVQLLESGGGLVQPGGSLRLSCAASGFTFSSYAMSWVRQAPGKCLEWVSAISGSGGSTYYADSVKGRFTISRDNSKNTLYLQMNSLRAEDTAVYYCARYYGGYYSAWMDYWGQGTLVTVSSGGGGSGGGGSGGGGSGGGGSDIQMTQSPSSLSASVGDRVTITCRASQSISSFLNWYQQKPGKAPKLLIYAASSLQSGVPSRFSGSGSGTDFTLTISSLQPEDSATYYCQQTYGYLHTFGCGTKLEIKR
notes: Optimized ADAPTIR scFv-Fc-scFv homodimer with stabilizing disulfide in the 1210 scFv
EC50: 21 nM | Maximum MFI: 25400
